According to patent US20150203577A1 (Chugai, published 2015):

T1: mouse FcγRII extracellular domain, C-terminal His tag (mouse, UniProt P08101 30-210)
T1 construct: also called mFcγRII; mFcgRII
T1 sequence: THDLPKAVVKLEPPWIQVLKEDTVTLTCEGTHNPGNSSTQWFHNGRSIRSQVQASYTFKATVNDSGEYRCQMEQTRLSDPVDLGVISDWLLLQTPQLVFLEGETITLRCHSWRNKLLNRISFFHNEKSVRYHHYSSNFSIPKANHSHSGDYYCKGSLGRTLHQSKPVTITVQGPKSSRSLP

T2: mouse FcγRIII extracellular domain, C-terminal His tag (mouse, UniProt P08508 31-215)
T2 construct: also called mFcγRIII; mFcgRIII
T2 chain: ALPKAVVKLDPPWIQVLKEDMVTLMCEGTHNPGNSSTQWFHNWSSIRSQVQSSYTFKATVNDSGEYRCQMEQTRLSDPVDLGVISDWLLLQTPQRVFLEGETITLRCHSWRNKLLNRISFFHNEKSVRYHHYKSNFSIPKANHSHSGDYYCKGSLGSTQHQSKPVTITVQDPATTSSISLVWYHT


How the values were obtained:
[1] = molecular target: T1, mouse FcγRII extracellular domain, …; assay: SPR (Biacore T200), antibody captured on Protein L, mFcγR analyte
[2] = molecular target: T2, mouse FcγRIII extracellular domain, …; assay: as above

Binder | Kd [1] [nM] | relative mFcγRII-binding activity (mIgG1 = 1) [1] | Kd [2] [nM] | relative mFcγRIII-binding activity (mIgG1 = 1) [2]
H237-MB852/MRAL-k0 (antibody, mouse IgG1, kappa, copies: 2 + 2) heavy: QVQLQESGPGLVKPSETLSLTCAVSGHSISHDHAWSWVRQPPGEGLEWIGFISYSGITNYNPSLQGRVTISRDNSKNTLYLQMNSLRAEDTAVYYCARSLARTTAMDYWGEGTLVTVSSAKTTPPSVYPLAPGSAAQTNSMVTLGCLVKGYFPEPVTVTWNSGSLSSGVHTFPAVLQSDLYTLSSSVTVPSSTWPSETVTCNVAHPASSTKVDKKIVPRDCGCKPCICEPNEVELVFIFPPKPKDVLTITLTPKVTCVVVDISKDDPEVQFSWFVDDVEVHTAQTQPREELFNSTFRSVSELPIMHQDWLNGKEFKCRVDSDGFPAPIEKTISKTKGRPKAPQVYTIPPPKEQMAKDKVSLTCMITDFFPEDITVEWQWNGQPAENYKNTQPIMDTDGSYFVYSKLNVQKSNWEAGNTFTCSVLHEGLHNHHTEKSLSHSPGK light: not shown | 3.44 | 61 fold vs H237-mIgG1/MRAL-k0 | 154 | 1.8 fold vs H237-mIgG1/MRAL-k0
H237-MB862/MRAL-k0 (antibody, mouse IgG1, kappa, copies: 2 + 2) heavy: QVQLQESGPGLVKPSETLSLTCAVSGHSISHDHAWSWVRQPPGEGLEWIGFISYSGITNYNPSLQGRVTISRDNSKNTLYLQMNSLRAEDTAVYYCARSLARTTAMDYWGEGTLVTVSSAKTTPPSVYPLAPGSAAQTNSMVTLGCLVKGYFPEPVTVTWNSGSLSSGVHTFPAVLQSDLYTLSSSVTVPSSTWPSETVTCNVAHPASSTKVDKKIVPRDCGCKPCICEPNEVELVFIFPPKPKDVLTITLTPKVTCVVVDISDDDPEVQFSWFVDDVEVHTAQTQPREEQFNSTFRSVSELPIMHQDWLNGKEFKCRVNSDGFPAYIEKTISKTKGRPKAPQVYTIPPPKEQMAKDKVSLTCMITDFFPEDITVEWQWNGQPAENYKNTQPIMDTDGSYFVYSKLNVQKSNWEAGNTFTCSVLHEGLHNHHTEKSLSHSPGK light: not shown | 3.09 | 67.9 fold vs H237-mIgG1/MRAL-k0 | 142 | 2 fold vs H237-mIgG1/MRAL-k0
H237-MB857/MRAL-k0 (antibody, mouse IgG1, kappa, copies: 2 + 2) heavy: QVQLQESGPGLVKPSETLSLTCAVSGHSISHDHAWSWVRQPPGEGLEWIGFISYSGITNYNPSLQGRVTISRDNSKNTLYLQMNSLRAEDTAVYYCARSLARTTAMDYWGEGTLVTVSSAKTTPPSVYPLAPGSAAQTNSMVTLGCLVKGYFPEPVTVTWNSGSLSSGVHTFPAVLQSDLYTLSSSVTVPSSTWPSETVTCNVAHPASSTKVDKKIVPRDCGCKPCICEPNEVELVFIFPPKPKDVLTITLTPKVTCVVVDISKDDPEVQFSWFVDDVEVHTAQTQPREEQFNSTFRSVSELPIMHQDWLNGKEFKCRVDSDGFPAPIYKTISKTKGRPKAPQVYTIPPPKEQMAKDKVSLTCMITDFFPEDITVEWQWNGQPAENYKNTQPIMDTDGSYFVYSKLNVQKSNWEAGNTFTCSVLHEGLHNHHTEKSLSHSPGK light: not shown | 4.71 | 44.6 fold vs H237-mIgG1/MRAL-k0 | 313 | 0.9 fold vs H237-mIgG1/MRAL-k0
H237-MB866/MRAL-k0 (antibody, mouse IgG1, kappa, copies: 2 + 2) heavy: QVQLQESGPGLVKPSETLSLTCAVSGHSISHDHAWSWVRQPPGEGLEWIGFISYSGITNYNPSLQGRVTISRDNSKNTLYLQMNSLRAEDTAVYYCARSLARTTAMDYWGEGTLVTVSSAKTTPPSVYPLAPGSAAQTNSMVTLGCLVKGYFPEPVTVTWNSGSLSSGVHTFPAVLQSDLYTLSSSVTVPSSTWPSETVTCNVAHPASSTKVDKKIVPRDCGCKPCICEPNEVEIVFIFPPKPKDVLTITLTPKVTCVVVDISKDDPEVQFSWFVDDVEVHTAQTQPREEQFNSTFRSVSELPIMHQDWLNGKEFKCRVNSDGFPAPIEKTISKTKGRPKAPQVYTIPPPKEQMAKDKVSLTCMITDFFPEDITVEWQWNGQPAENYKNTQPIMDTDGSYFVYSKLNVQKSNWEAGNTFTCSVLHEGLHNHHTEKSLSHSPGK light: not shown | 16.2 | 13 fold vs H237-mIgG1/MRAL-k0 | 1570 | 0.2 fold vs H237-mIgG1/MRAL-k0
H237-MB860/MRAL-k0 (antibody, mouse IgG1, kappa, copies: 2 + 2) heavy: QVQLQESGPGLVKPSETLSLTCAVSGHSISHDHAWSWVRQPPGEGLEWIGFISYSGITNYNPSLQGRVTISRDNSKNTLYLQMNSLRAEDTAVYYCARSLARTTAMDYWGEGTLVTVSSAKTTPPSVYPLAPGSAAQTNSMVTLGCLVKGYFPEPVTVTWNSGSLSSGVHTFPAVLQSDLYTLSSSVTVPSSTWPSETVTCNVAHPASSTKVDKKIVPRDCGCKPCICEPNEVELVFIFPPKPKDVLTITLTPKVTCVVVDISKDDPEVQFSWFVDDVEVHTAQTQPREEQFNSTFRSVSELPIMHQDWLNGKEFKCRVNSDGFPAPIYRTISKTKGRPKAPQVYTIPPPKEQMAKDKVSLTCMITDFFPEDITVEWQWNGQPAENYKNTQPIMDTDGSYFVYSKLNVQKSNWEAGNTFTCSVLHEGLHNHHTEKSLSHSPGK light: not shown | 5.3 | 39.6 fold vs H237-mIgG1/MRAL-k0 | 379 | 0.7 fold vs H237-mIgG1/MRAL-k0
H237-MB854/MRAL-k0 (antibody, mouse IgG1, kappa, copies: 2 + 2) heavy: QVQLQESGPGLVKPSETLSLTCAVSGHSISHDHAWSWVRQPPGEGLEWIGFISYSGITNYNPSLQGRVTISRDNSKNTLYLQMNSLRAEDTAVYYCARSLARTTAMDYWGEGTLVTVSSAKTTPPSVYPLAPGSAAQTNSMVTLGCLVKGYFPEPVTVTWNSGSLSSGVHTFPAVLQSDLYTLSSSVTVPSSTWPSETVTCNVAHPASSTKVDKKIVPRDCGCKPCICEPNEVELVFIFPPKPKDVLTITLTPKVTCVVVDISKDDPEVQFSWFVDDVEVHTAQTQPREELFNSTFRSVSELPIMHQDWLNGKEFKCRVNSDGFPAPIYKTISKTKGRPKAPQVYTIPPPKEQMAKDKVSLTCMITDFFPEDITVEWQWNGQPAENYKNTQPIMDTDGSYFVYSKLNVQKSNWEAGNTFTCSVLHEGLHNHHTEKSLSHSPGK light: not shown | 4.15 | 50.6 fold vs H237-mIgG1/MRAL-k0 | 225 | 1.3 fold vs H237-mIgG1/MRAL-k0
H237-MB859/MRAL-k0 (antibody, mouse IgG1, kappa, copies: 2 + 2) heavy: QVQLQESGPGLVKPSETLSLTCAVSGHSISHDHAWSWVRQPPGEGLEWIGFISYSGITNYNPSLQGRVTISRDNSKNTLYLQMNSLRAEDTAVYYCARSLARTTAMDYWGEGTLVTVSSAKTTPPSVYPLAPGSAAQTNSMVTLGCLVKGYFPEPVTVTWNSGSLSSGVHTFPAVLQSDLYTLSSSVTVPSSTWPSETVTCNVAHPASSTKVDKKIVPRDCGCKPCICEPNEVELVFIFPPKPKDVLTITLTPKVTCVVVDISKDDPEVQFSWFVDDVEVHTAQTQPREEQFNSTFRSVSELPIMHQDWLNGKEFKCRVNSDGFPAYIERTISKTKGRPKAPQVYTIPPPKEQMAKDKVSLTCMITDFFPEDITVEWQWNGQPAENYKNTQPIMDTDGSYFVYSKLNVQKSNWEAGNTFTCSVLHEGLHNHHTEKSLSHSPGK light: not shown | 6.15 | 34.2 fold vs H237-mIgG1/MRAL-k0 | 396 | 0.7 fold vs H237-mIgG1/MRAL-k0
H237-MB856/MRAL-k0 (antibody, mouse IgG1, kappa, copies: 2 + 2) heavy: QVQLQESGPGLVKPSETLSLTCAVSGHSISHDHAWSWVRQPPGEGLEWIGFISYSGITNYNPSLQGRVTISRDNSKNTLYLQMNSLRAEDTAVYYCARSLARTTAMDYWGEGTLVTVSSAKTTPPSVYPLAPGSAAQTNSMVTLGCLVKGYFPEPVTVTWNSGSLSSGVHTFPAVLQSDLYTLSSSVTVPSSTWPSETVTCNVAHPASSTKVDKKIVPRDCGCKPCICEPNEVELVFIFPPKPKDVLTITLTPKVTCVVVDISKDDPEVQFSWFVDDVEVHTAQTQPREEQFNSTFRSVSELPIMHQDWLNGKEFKCRVDSDGFPAYIEKTISKTKGRPKAPQVYTIPPPKEQMAKDKVSLTCMITDFFPEDITVEWQWNGQPAENYKNTQPIMDTDGSYFVYSKLNVQKSNWEAGNTFTCSVLHEGLHNHHTEKSLSHSPGK light: not shown | 4.69 | 44.8 fold vs H237-mIgG1/MRAL-k0 | 311 | 0.9 fold vs H237-mIgG1/MRAL-k0
H237-MB858/MRAL-k0 (antibody, mouse IgG1, kappa, copies: 2 + 2) heavy: QVQLQESGPGLVKPSETLSLTCAVSGHSISHDHAWSWVRQPPGEGLEWIGFISYSGITNYNPSLQGRVTISRDNSKNTLYLQMNSLRAEDTAVYYCARSLARTTAMDYWGEGTLVTVSSAKTTPPSVYPLAPGSAAQTNSMVTLGCLVKGYFPEPVTVTWNSGSLSSGVHTFPAVLQSDLYTLSSSVTVPSSTWPSETVTCNVAHPASSTKVDKKIVPRDCGCKPCICEPNEVELVFIFPPKPKDVLTITLTPKVTCVVVDISKDDPEVQFSWFVDDVEVHTAQTQPREEQFNSTFRSVSELPIMHQDWLNGKEFKCRVDSDGFPAPIERTISKTKGRPKAPQVYTIPPPKEQMAKDKVSLTCMITDFFPEDITVEWQWNGQPAENYKNTQPIMDTDGSYFVYSKLNVQKSNWEAGNTFTCSVLHEGLHNHHTEKSLSHSPGK light: not shown | 3.39 | 62 fold vs H237-mIgG1/MRAL-k0 | 223 | 1.3 fold vs H237-mIgG1/MRAL-k0
H237-MB863/MRAL-k0 (antibody, mouse IgG1, kappa, copies: 2 + 2) heavy: QVQLQESGPGLVKPSETLSLTCAVSGHSISHDHAWSWVRQPPGEGLEWIGFISYSGITNYNPSLQGRVTISRDNSKNTLYLQMNSLRAEDTAVYYCARSLARTTAMDYWGEGTLVTVSSAKTTPPSVYPLAPGSAAQTNSMVTLGCLVKGYFPEPVTVTWNSGSLSSGVHTFPAVLQSDLYTLSSSVTVPSSTWPSETVTCNVAHPASSTKVDKKIVPRDCGCKPCICEPNEVELVFIFPPKPKDVLTITLTPKVTCVVVDISDDDPEVQFSWFVDDVEVHTAQTQPREEQFNSTFRSVSELPIMHQDWLNGKEFKCRVNSDGFPAPIYKTISKTKGRPKAPQVYTIPPPKEQMAKDKVSLTCMITDFFPEDITVEWQWNGQPAENYKNTQPIMDTDGSYFVYSKLNVQKSNWEAGNTFTCSVLHEGLHNHHTEKSLSHSPGK light: not shown | 2.58 | 81.3 fold vs H237-mIgG1/MRAL-k0 | 121 | 2.3 fold vs H237-mIgG1/MRAL-k0
